The target in assay [1] is T1, Retinoblastoma protein (Rb), endogenous in the cells used (UniProt P06400 2-928).
T1 construct: also called endogenous Rb; total Rb
T1 sequence (looked up): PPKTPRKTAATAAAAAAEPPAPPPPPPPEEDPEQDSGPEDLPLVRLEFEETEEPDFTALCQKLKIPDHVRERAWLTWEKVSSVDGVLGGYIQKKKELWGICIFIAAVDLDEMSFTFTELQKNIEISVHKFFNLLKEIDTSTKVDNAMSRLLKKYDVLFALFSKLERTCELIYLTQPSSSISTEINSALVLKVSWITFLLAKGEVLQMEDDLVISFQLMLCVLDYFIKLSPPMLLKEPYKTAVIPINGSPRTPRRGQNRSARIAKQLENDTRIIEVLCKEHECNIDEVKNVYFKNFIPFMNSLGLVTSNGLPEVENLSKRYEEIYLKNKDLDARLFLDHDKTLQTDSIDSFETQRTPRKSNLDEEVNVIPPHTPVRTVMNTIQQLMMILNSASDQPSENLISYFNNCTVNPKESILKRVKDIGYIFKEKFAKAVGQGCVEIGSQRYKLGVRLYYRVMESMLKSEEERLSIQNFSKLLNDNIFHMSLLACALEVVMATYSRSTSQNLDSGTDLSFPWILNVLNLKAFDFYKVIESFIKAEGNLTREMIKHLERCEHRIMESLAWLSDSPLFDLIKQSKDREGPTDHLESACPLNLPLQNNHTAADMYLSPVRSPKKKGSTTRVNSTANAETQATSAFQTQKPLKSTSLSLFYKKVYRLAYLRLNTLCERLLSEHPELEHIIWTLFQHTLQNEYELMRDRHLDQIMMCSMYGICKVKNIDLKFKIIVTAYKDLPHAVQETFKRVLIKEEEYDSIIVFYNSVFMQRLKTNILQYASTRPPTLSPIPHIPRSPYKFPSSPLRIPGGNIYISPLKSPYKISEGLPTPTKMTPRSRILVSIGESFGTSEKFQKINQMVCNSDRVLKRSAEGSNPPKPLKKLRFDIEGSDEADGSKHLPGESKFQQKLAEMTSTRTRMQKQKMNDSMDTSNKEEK
Kind of assay: IP with anti-Rb (G99-2005) from transfected HEK 293 extracts, anti-V5 western. Here is the method:
(§1) Immunoprecipitation and Immunoblotting-1×10⁶ HEK 293 cells were seeded onto a T-150 flask. 24 hours later, cells were transfected with 15 μg of the indicated plasmids. 48 hrs post transfection, cells were harvested, washed twice with cold PBS, and lysed with MPER (Pierce) containing 1× protease inhibitor cocktail (HALT, Pierce). Lysates were centrifuged at 4° C. for 30 minutes at 16,000 g to remove particulate material. The supernatant was precleared for 2 hours with protein A-agarose (Roche). The pre-cleared cell lysates were mixed with the indicated antibodies and protein A- or protein G-agarose (Roche) and incubated at 4° C. overnight. The next day, the reaction mixture was washed three times with cold PBS, boiled for 3 minutes and eluted in 2×SDS buffer. The eluted materials were subsequently analyzed by immunoblotting with the indicated antibodies.
While pp32 inhibits transformation, pp32r1 (ANP32C) and pp32r2 (ANP32D), both highly homologous to pp32 at the protein level (87.7% and 89.3% respectively) are tumorigenic (Kadkol, S. S., Brody, J. R., Pevsner, J., Bai, J., and Pasternack, G. R. (1999) Nature Med. 5, 275-279). Therefore, the possibility of an interaction between these family members and Rb was explored. pp32r1 and r2 were V5-epitope tagged and overexpressed in HEK 293 cells. HEK 293 cells were transfected with pp32V5, pp32r1V5, pp32r2V5 or LacZV5 expression vectors as indicated. Equal amounts of cell extracts were precipitated with anti-Rb (G99-2005) antibody and analysed by western blotting with anti-V5 antibody. Equal amounts of cell lysates were immunoprecipitated with anti-Rb and immunoblotted with anti-V5.

Assay [2] concerns the target T2, WT-LP (wild-type large pocket fragment of RB, amino acids 379-928) (UniProt P06400 379-928).
T2 construct: range 379-928; Expressed by cotransfection in HEK 293 cells; Construct from Knudsen et al., 1996; also called Rb large pocket fragment
T2 sequence (looked up): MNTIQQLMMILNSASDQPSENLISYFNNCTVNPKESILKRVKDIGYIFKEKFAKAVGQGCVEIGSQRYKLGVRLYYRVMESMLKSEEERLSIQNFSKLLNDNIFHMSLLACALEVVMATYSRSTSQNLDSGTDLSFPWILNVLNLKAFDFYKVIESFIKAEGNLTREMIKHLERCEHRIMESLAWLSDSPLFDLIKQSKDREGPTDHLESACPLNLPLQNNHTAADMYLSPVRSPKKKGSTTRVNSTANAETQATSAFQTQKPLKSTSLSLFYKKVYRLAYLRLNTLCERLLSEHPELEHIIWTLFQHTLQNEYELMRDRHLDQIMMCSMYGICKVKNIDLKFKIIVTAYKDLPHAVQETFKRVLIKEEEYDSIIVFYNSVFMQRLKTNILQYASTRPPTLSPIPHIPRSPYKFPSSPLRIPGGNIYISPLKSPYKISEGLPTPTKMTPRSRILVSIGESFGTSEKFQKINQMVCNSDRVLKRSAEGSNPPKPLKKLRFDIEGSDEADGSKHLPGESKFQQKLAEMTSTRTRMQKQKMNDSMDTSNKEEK
As to the kind of experiment: cotransfection in HEK 293, IP with anti-V5, western with anti-Rb (851).
Source text: (§2) Equal amounts of cell extracts were precipitated with anti-V5 antibody. Upper panel, the presence of WT-LP or PSM2T-LP in immunoprecipitates was probed by western blot analysis using anti-Rb antibody (851). The right-hand arrow indicates the position of the Rb large pocket fragment. The lower band present in all three lanes is immunoglobulin heavy chain, which serves as a loading control. Middle panel, anti-V5 immunoprecipitates were subjected to western blot analysis with anti-V5 antibody to confirm pp32V5 immunoprecipitation. Lower panel, cell extracts were subjected to western blotting with anti-Rb antibody (851) to confirm expression of WT-LP and PSM2T-LP.
as §1, with “The next day, the reaction mixture was washed three times with cold PBS, boiled for 3 minutes and eluted in 2×SDS buffer.” left out, “antibodies. […]” for “antibodies.”

The target in assay [3] is T3, PSM2T-LP (double T821A/T826A large pocket mutant of RB) (UniProt P06400 379-928).
T3 construct: range 379-928; Expressed by cotransfection in HEK 293 cells
T3 sequence (looked up): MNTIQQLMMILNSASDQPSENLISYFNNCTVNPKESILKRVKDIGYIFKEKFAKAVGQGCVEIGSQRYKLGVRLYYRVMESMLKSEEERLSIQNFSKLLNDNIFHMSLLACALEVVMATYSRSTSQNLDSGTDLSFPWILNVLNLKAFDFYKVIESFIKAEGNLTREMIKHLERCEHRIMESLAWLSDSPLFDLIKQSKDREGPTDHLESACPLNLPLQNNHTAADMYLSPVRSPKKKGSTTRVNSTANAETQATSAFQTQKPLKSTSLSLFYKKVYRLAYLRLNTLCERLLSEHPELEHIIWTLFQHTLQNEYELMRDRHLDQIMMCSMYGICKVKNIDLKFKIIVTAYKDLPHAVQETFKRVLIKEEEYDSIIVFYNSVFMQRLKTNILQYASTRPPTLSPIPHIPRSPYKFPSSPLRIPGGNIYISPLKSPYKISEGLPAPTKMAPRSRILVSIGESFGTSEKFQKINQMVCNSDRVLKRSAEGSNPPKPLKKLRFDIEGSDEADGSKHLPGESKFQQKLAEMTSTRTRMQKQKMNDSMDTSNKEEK
Described as above.
Source text: as §2
as §1, with “The next day, the reaction mixture was washed three times with cold PBS, boiled for 3 minutes and eluted in 2×SDS buffer.” left out, “antibodies. […]” for “antibodies.”

Data on four molecules can be found in patent US20070141062A1 (published 2007).

B1: pp32r2V5 (V5-epitope tagged pp32r2, ANP32D) (other, UniProt O95626 1-131, looked up, not shown: small tags and cut ends)
chain: MEMGKWIHLELRNRTPSDVKELFLDNSQSNEGKLEGLTDEFEELELLNTINIGLTSIANLPKLNKLKKLELSSNRASVGLEVLAEKCPNLIHLNLSGNKIKDLSTIEPLKKLENLESLDLFTCEVTNLNNY
notes: Overexpressed in HEK 293 cells
On to B1, for which the binding result in assay [1] was “no binding”.

B2: pp32Δ201-360V5 (other, not shown: small tags and cut ends)
chain: MEMGRRIHLELRNRTPSDVKELVLDNSRSNEGKLEGLTDEFEELEFLSTINVGLTSIANLPKLNKLFNCEVTNLNDYRENVFKLLPQLTYLDGYDRDDKEAPDSDAEGYVEGLDDEEEDEDEEEYDEDAQVVEDEEDEDEEEEGEEEDVSGEEEEDEEGYNDGEVDDEEDEEELGEEERGQKRKREPEDEGEDDD
notes: also called pp32D201-360V5
Consider B2, for which, in assay [1], the binding result is reported as “no binding”.

B3: pp32r1V5 (V5-epitope tagged pp32r1, ANP32C) (other, UniProt O43423 1-234, looked up, not shown: small tags and cut ends)
chain: MEMGRRIHSELRNRAPSDVKELALDNSRSNEGKLEALTDEFEELEFLSKINGGLTSISDLPKLKLRKLELRVSGGLEVLAEKCPNLTHLYLSGNKIKDLSTIEPLKQLENLKSLDLFNCEVTNLNDYGENVFKLLLQLTYLDSCYWDHKEAPYSDIEDHVEGLDDEEEGEHEEEYDEDAQVVEDEEGEEEEEEGEEEDVSGGDEEDEEGYNDGEVDGEEDEEELGEEERGQKRK
notes: as for B1
B3: the binding result in assay [1] is on record as “no binding”.

B4: V5-epitope tagged pp32 (pp32V5) (other, not shown: small tags and cut ends)
chain: MEMGRRIHLELRNRTPSDVKELVLDNSRSNEGKLEGLTDEFEELEFLSTINVGLTSIANLPKLNKLKKLELSDNRVSGGLEVLAEKCPNLTHLNLSGNKIKDLSTIEPLKKLENLKSLDLFNCEVTNLNDYRENVFKLLPQLTYLDGYDRDDKEAPDSDAEGYVEGLDDEEEDEDEEEYDEDAQVVEDEEDEDEEEEGEEEDVSGEEEEDEEGYNDGEVDDEEDEEELGEEERGQKRKREPEDEGEDDD
notes: Expressed by transient transfection in HEK 293 (or NIH 3T3) cells and tested in cell extracts; also called V5-tagged pp32
Turning to B4, the binding result in assay [2] was “binds”; in assay [3] it was “no binding”.
